Common to all, as to experiment: cell_activity
In data set [1] the test system is TL8181 TALE-KRAB (synthetic). As to conditions: TIM3, day 2.
Data set [2] relates to TL11110 TALE-KRAB (synthetic). The note with it: PD-1, day 2.
In data set [3] the test system is TL11126 TALE-KRAB (synthetic). As to conditions: PD-1, day 2.
Data set [4] relates to TL11102 TALE-KRAB (synthetic). As to conditions: PD-1, day 2.
For data set [5], the system named is TL11088 TALE-KRAB (synthetic). The note with it: PD-1, day 2.
Data set [6] deals with TL11877 TALE-KRAB (synthetic). As to conditions: PD-1, day 2; table prints SEQ 63 but bases match SEQ 18.
Data set [7] concerns TL11131 TALE-KRAB (synthetic). The note with it: PD-1, day 2.
Data set [8] relates to TL11112 TALE-KRAB (synthetic). As to conditions: PD-1, day 2.
For data set [9], the system named is TL11105 TALE-KRAB (synthetic). The note with it: PD-1, day 2.
Data set [10] relates to TL11087 TALE-KRAB (synthetic). As to conditions: PD-1, day 2.
Data set [11] relates to TL11132 TALE-KRAB (synthetic). The note with it: PD-1, day 2.
For data set [12], the system named is TL11133 TALE-KRAB (synthetic). The note with it: PD-1, day 2.
The test system of data set [13] is TL11124 TALE-KRAB (synthetic). The note with it: PD-1, day 2.
Data set [14] relates to TL11092 TALE-KRAB (synthetic). As to conditions: PD-1, day 2.
The test system of data set [15] is TL11127 TALE-KRAB (synthetic). As to conditions: PD-1, day 2.
Data set [16] has as its system TL8241 TALE-KRAB (synthetic). The note with it: LAG3, day 2.
For data set [17], the system named is TL11879 TALE-KRAB (synthetic). The note with it: PD-1, day 2.
Data set [18] has as its system TL11130 TALE-KRAB (synthetic). The note with it: PD-1, day 2.
Data set [19] has as its system TL11876 TALE-KRAB (synthetic). The note with it: PD-1, day 2.
Data set [20] concerns TL8201 TALE-KRAB (synthetic). As to conditions: TIM3, day 2.
The subject of data set [21] is TL11875 TALE-KRAB (synthetic). The note with it: PD-1, day 2.
In data set [22] the test system is TL11099 TALE-KRAB (synthetic). As to conditions: PD-1, day 2.
Data set [23] concerns TL8222 TALE-KRAB (synthetic). As to conditions: LAG3, day 2.
Data set [24] concerns TL8220 TALE-KRAB (synthetic). The note with it: LAG3, day 2.
Data set [25] concerns TL11129 TALE-KRAB (synthetic). The note with it: PD-1, day 2.
For data set [26], the system named is TL11128 TALE-KRAB (synthetic). The note with it: PD-1, day 2.
The test system of data set [27] is TL11103 TALE-KRAB (synthetic). The note with it: PD-1, day 2.
Data set [28] has as its system TL11119 TALE-KRAB (synthetic). As to conditions: PD-1, day 2.
The subject of data set [29] is TL11096 TALE-KRAB (synthetic). As to conditions: PD-1, day 2.
In data set [30] the test system is TL8188 TALE-KRAB (synthetic). As to conditions: TIM3, day 2.
Data set [31] has as its system TL11084 TALE-KRAB (synthetic). As to conditions: PD-1, day 2.
For data set [32], the system named is TL11108 TALE-KRAB (synthetic). As to conditions: PD-1, day 2.
The test system of data set [33] is TL11093 TALE-KRAB (synthetic). The note with it: PD-1, day 2.
For data set [34], the system named is TL8214 TALE-KRAB (synthetic). As to conditions: LAG3, day 2.
The test system of data set [35] is TL11094 TALE-KRAB (synthetic). As to conditions: PD-1, CD3+ T cells, day 2.
Data set [36] relates to TL11104 TALE-KRAB (synthetic). As to conditions: PD-1, day 2.
The test system of data set [37] is TL11101 TALE-KRAB (synthetic). As to conditions: PD-1, day 2.
For data set [38], the system named is TL8216 TALE-KRAB (synthetic). As to conditions: LAG3, day 2.
In data set [39] the test system is TL9598 TALE-KRAB (synthetic). The note with it: LAG3, day 2.
Data set [40] relates to pAL040 TALE-KRAB (synthetic). The note with it: PD-1, day 2.
Data set [41] deals with TL9342 TALE-KRAB (synthetic). The note with it: TIM3, day 2.
In data set [42] the test system is TL8189 TALE-KRAB (synthetic). As to conditions: TIM3, day 2.
Data set [43] has as its system TL9337 TALE-KRAB (synthetic). The note with it: TIM3, day 2.
Data set [44] deals with TL9606 TALE-KRAB (synthetic). The note with it: LAG3, day 2.
For data set [45], the system named is pAL043 (PD02) TALE-KRAB (synthetic). The note with it: PD-1, day 2.
Data set [46] relates to TL9339 TALE-KRAB (synthetic). As to conditions: TIM3, day 2.
Data set [47] deals with TL9820 TALE-KRAB (synthetic). The note with it: LAG3, day 2.
In data set [48] the test system is TL11106 TALE-KRAB (synthetic). As to conditions: PD-1, day 2.
Data set [49] deals with TL9717 TALE-KRAB (synthetic). The note with it: LAG3, day 2.

The sequence “ACTTCTTCCAACTGT (double strand) [TL8181 site]” gave an activity in data set [1] of over 50 % repression.
On to “CAACCTGACCTGGGACAGTT (double strand) [TL11110 site]”, for which the activity in data set [2] was over 80 % repression.
“CACTCTCGCCCACGTGGAT (double strand) [TL11126 site]” had an activity in data set [3] of over 50 % repression.
For the sequence “CCACTGCTCAGGCGGAGGT (double strand) [TL11102 site]”, the activity in [4] was over 50 % repression.
In the case of “CCCACAGGCGCCCTGG (double strand) [TL11088 site]”, the activity in [5] was over 50 % repression.
In data set [6], “CCCAGGTCAGGTTGAAG (double strand) [TL11877 site]” registered an activity of over 80 % repression.
“CCCCCAGCACTGCCTCT (double strand) [TL11131 site]”: the activity in [7] was over 50 % repression.
Turning to “CCCTTCAACCTGACCT (double strand) [TL11112 site]”, in data set [8], the activity was over 80 % repression.
Sequence “CCCTTCCGCTCACCTCCGC (double strand) [TL11105 site]” gave an activity in [9] of over 80 % repression.
Take “CCTCCACATCCACGTGGGC (double strand) [TL11087 site]”: the activity in data set [10] was over 50 % repression.
In the case of “CCTCCCCCAGCACTGC (double strand) [TL11132 site]”, the activity in data set [11] was over 80 % repression.
On to “CCTCCCCCAGCACTGCC (double strand) [TL11133 site]”, for which the activity in [12] is over 80 % repression.
In turn, “CTCGCCCACGTGGATGTGG (double strand) [TL11124 site]” returned an activity in [13] of over 50 % repression.
Consider “CTGCATGCCTGGAGCAG (double strand) [TL11092 site]”, for which the activity in [14] was over 50 % repression.
On to “CTGTCACTCTCGCCCACGT (double strand) [TL11127 site]”, for which the activity in [15] is over 50 % repression.
“CTGTTCCCTGGGACACCCCC (double strand) [TL8241 site]” showed an activity in data set [16] of over 50 % repression.
In [17], “CTTCCTCCACATCCACG (double strand) [TL11879 site]” showed an activity of over 50 % repression.
“GACAGAGGCAGTGCTGG (double strand) [TL11130 site]” registered an activity in [18] of over 50 % repression.
“GACCTGGGACAGTTTCC (double strand) [TL11876 site]”: the activity in data set [19] was over 80 % repression.
In turn, “GAGAAAATTGTATTAGAT (double strand) [TL8201 site]” had an activity in [20] of over 50 % repression.
In data set [21], “GCAGATCCCACAGGCGC (double strand) [TL11875 site]” yielded an activity of over 80 % repression.
Take “GCCGCCTTCTCCACT (double strand) [TL11099 site]”: the activity in data set [22] is over 80 % repression.
In turn, “GCCGTTCTGCTGGTCT (double strand) [TL8222 site]” displayed an activity in data set [23] of over 80 % repression.
As for “GCCGTTCTGCTGGTCTCT (double strand) [TL8220 site]”, in data set [24], the activity is over 80 % repression.
Consider “GCCTCTGTCACTCTCG (double strand) [TL11129 site]”, for which the activity in data set [25] was over 80 % repression.
For “GCCTCTGTCACTCTCGCCC (double strand) [TL11128 site]”, the activity in data set [26] is over 80 % repression.
In turn, “GCTCAGGCGGAGGTGAG (double strand) [TL11103 site]” registered an activity in data set [27] of over 50 % repression.
The sequence “GCTCCCGCCCCCTCTTCCT (double strand) [TL11119 site]” displayed an activity in data set [28] of over 50 % repression.
“GGAGCAGCCCCACCAGAGT (double strand) [TL11096 site]” yielded an activity in data set [29] of over 50 % repression.
In turn, “GGCAGTGTTACTATAA (double strand) [TL8188 site]” gave an activity in data set [30] of over 80 % repression.
Regarding “GGCCAGGGCGCCTGT (double strand) [TL11084 site]”, the activity in [31] was over 50 % repression.
Regarding “GGGACAGTTTCCCTTC (double strand) [TL11108 site]”, the activity in data set [32] was over 80 % repression.
For “GGGGCTGCTCCAGGCATGC (double strand) [TL11093 site]”, the activity in [33] was over 50 % repression.
With “GGTCTCTGGGCCTTCA (double strand) [TL8214 site]”, the activity in [34] was over 80 % repression.
As to “GGTGGGGCTGCTCCAGG (double strand) [TL11094 site]”, in data set [35], the activity is over 80 % repression.
Take “TCCGCTCACCTCCGCCTGA (double strand) [TL11104 site]”: the activity in data set [36] was over 80 % repression.
“TCTCCACTGCTCAGGCG (double strand) [TL11101 site]”: the activity in [37] was over 80 % repression.
The sequence “TCTGCTGGTCTCTGGGCC (double strand) [TL8216 site]” came in with an activity in [38] of over 80 % repression.
In data set [39], “TCTGCTGGTCTCTGGGCCTTC (double strand) [TL9598 site]” gave an activity of over 80 % repression.
In the case of “TCTGTCACTCTCGCCCAC (double strand) [pAL040 site]”, in data set [40], the activity was over 80 % repression.
“TGCCACACTACACACAT (double strand) [TL9342 site]”: the activity in [41] is over 80 % repression.
“TGCCAGTGATTCTTATAGT (double strand) [TL8189 site]” came in with an activity in data set [42] of over 80 % repression.
For “TGGCAATCAGACACCCGGGTG (double strand) [TL9337 site]”, the activity in data set [43] was over 80 % repression.
Sequence “TGGTCTCTGGGCCTTCACCC (double strand) [TL9606 site]” displayed an activity in [44] of over 80 % repression.
For “TGGTGGGGCTGCTCC (double strand) [pAL043 site]”, in [45], the activity was over 80 % repression.
Turning to “TGTCTGATTGCCAGTGATT (double strand) [TL9339 site]”, the activity in data set [46] was over 80 % repression.
Regarding “TTCACCCCTGTGCCCGGCCTTCC (double strand) [TL9820 site]”, in data set [47], the activity was over 80 % repression.
On to “TTCCCTTCCGCTCACC (double strand) [TL11106 site]”, for which the activity in data set [48] was over 80 % repression.
Consider “TTTGCTCTGTCTGCTC (double strand) [TL9717 site]”, for which the activity in data set [49] is over 80 % repression.

These data come from US20220290188.
